Drawing on article PMC6787021, this text covers stoichiometry N for 25 substances.

The target of assay [1] is TbMscL F34C, spin-labeled with MTSSL (Mycobacterium tuberculosis) (UniProt P9WJN5). The experiment in a line: SEC.
Assay [2] addresses TbMscL V48C, spin-labeled with MTSSL (Mycobacterium tuberculosis) (UniProt P9WJN5). In words: SEC.
Assay [3] concerns the target TbMscL F5C, spin-labeled with MTSSL (Mycobacterium tuberculosis) (UniProt P9WJN5). The experiment in a line: SEC.
In assay [4] the target is TbMscL V112C, spin-labeled with MTSSL (Mycobacterium tuberculosis) (UniProt P9WJN5). The experiment in a line: SEC. (In general: SEC sorts molecules by how far they enter the pores of the column.)
Assay [5] deals with TbMscL A85C, spin-labeled with MTSSL (Mycobacterium tuberculosis) (UniProt P9WJN5). The experiment in a line: SEC.
Assay [6] concerns the target TbMscL N70R1-L89W (Mycobacterium tuberculosis) (UniProt P9WJN5). The experiment in a line: SEC.
The target of assay [7] is TbMscL L89C, spin-labeled with MTSSL (Mycobacterium tuberculosis) (UniProt P9WJN5). In words: SEC.
The target of assay [8] is TbMscL F88C, spin-labeled with MTSSL (Mycobacterium tuberculosis) (UniProt P9WJN5). The experiment in a line: SEC.
In assay [9] the target is TbMscL R98C, spin-labeled with MTSSL (Mycobacterium tuberculosis) (UniProt P9WJN5). In words: SEC.
Assay [10] has as its target TbMscL L72R1-L89W (Mycobacterium tuberculosis) (UniProt P9WJN5). In words: SEC.
Assay [11] has the same target. The experiment in a line: SEC; samples thawed after PELDOR measurements and run over SEC.
For assay [12], the target named is TbMscL N70C, spin-labeled with MTSSL (Mycobacterium tuberculosis) (UniProt P9WJN5). The experiment in a line: SEC.
For assay [13], the target named is TbMscL Y87C, spin-labeled with MTSSL (Mycobacterium tuberculosis) (UniProt P9WJN5). In words: SEC.
Assay [14] addresses TbMscL K99C, spin-labeled with MTSSL (Mycobacterium tuberculosis) (UniProt P9WJN5). In words: SEC.
In assay [15] the target is TbMscL L72C, spin-labeled with MTSSL (Mycobacterium tuberculosis) (UniProt P9WJN5). In words: SEC.
In assay [16] the target is TbMscL L73C, spin-labeled with MTSSL (Mycobacterium tuberculosis) (UniProt P9WJN5). The experiment in a line: SEC.
Assay [17] addresses TbMscL L73R1-L89W (Mycobacterium tuberculosis) (UniProt P9WJN5). In words: SEC.
Assay [18] addresses TbMscL F79C, spin-labeled with MTSSL (Mycobacterium tuberculosis) (UniProt P9WJN5). In words: SEC.
Assay [19] concerns the target TbMscL I23C, spin-labeled with MTSSL (Mycobacterium tuberculosis) (UniProt P9WJN5). In words: SEC.
For assay [20], the target named is TbMscL K100R1-L89W (Mycobacterium tuberculosis) (UniProt P9WJN5). In words: SEC.
The target in assay [21] is TbMscL L42C, spin-labeled with MTSSL (Mycobacterium tuberculosis) (UniProt P9WJN5). The experiment in a line: SEC.
Assay [22] concerns the target TbMscL E102C, spin-labeled with MTSSL (Mycobacterium tuberculosis) (UniProt P9WJN5). The experiment in a line: SEC.
Assay [23] shares this target. The experiment in a line: SEC; samples thawed after PELDOR measurements and run over SEC.
In assay [24] the target is TbMscL K100C, spin-labeled with MTSSL (Mycobacterium tuberculosis) (UniProt P9WJN5). The experiment in a line: SEC.
The target in assay [25] is TbMscL L2C, spin-labeled with MTSSL (Mycobacterium tuberculosis) (UniProt P9WJN5). In words: SEC.
For assay [26], the target named is TbMscL K100R1-F88W (Mycobacterium tuberculosis) (UniProt P9WJN5). The experiment in a line: SEC.
Assay [27] has as its target TbMscL F84C, spin-labeled with MTSSL (Mycobacterium tuberculosis) (UniProt P9WJN5). In words: SEC.

Broadly, the stoichiometry N is a count of units in the complex or per binding partner. The substance “TbMscL F34C, spin-labeled with MTSSL (from UniProt P9WJN5 1-151) (natural protein)” had a stoichiometry N in [1] of 5.

Regarding “TbMscL V48C, spin-labeled with MTSSL (from UniProt P9WJN5 1-151) (natural protein)”, the stoichiometry N in assay [2] stood at 5.

In assay [3], “TbMscL F5C, spin-labeled with MTSSL (from UniProt P9WJN5 1-151) (natural protein)” showed a stoichiometry N of 5.

In [4], “TbMscL V112C, spin-labeled with MTSSL (from UniProt P9WJN5 1-151) (natural protein)” returned a stoichiometry N of 5.

In turn, “TbMscL A85C, spin-labeled with MTSSL (from UniProt P9WJN5 1-151) (natural protein)” had a stoichiometry N in assay [5] of 5.

As to “TbMscL N70R1-L89W (from UniProt P9WJN5 1-151) (natural protein)”, in assay [6], the stoichiometry N amounted to 5.

“TbMscL L89C, spin-labeled with MTSSL (from UniProt P9WJN5 1-151) (natural protein)” had a stoichiometry N in assay [7] of 5.

On to “TbMscL F88C, spin-labeled with MTSSL (from UniProt P9WJN5 1-151) (natural protein)”, for which, in assay [8], the stoichiometry N amounted to 5.

Consider “TbMscL R98C, spin-labeled with MTSSL (from UniProt P9WJN5 1-151) (natural protein)”, for which, in assay [9], the stoichiometry N was 5.

On to “TbMscL L72R1-L89W (from UniProt P9WJN5 1-151) (natural protein)”, for which the stoichiometry N in assay [10] and in assay [11] was 5 each time.

“TbMscL N70C, spin-labeled with MTSSL (from UniProt P9WJN5 1-151) (natural protein)” yielded a stoichiometry N in [12] of 5.

In assay [13], “TbMscL Y87C, spin-labeled with MTSSL (from UniProt P9WJN5 1-151) (natural protein)” displayed a stoichiometry N of 5.

As to “TbMscL K99C, spin-labeled with MTSSL (from UniProt P9WJN5 1-151) (natural protein)”, in assay [14], the stoichiometry N came to 5.

As for “TbMscL L72C, spin-labeled with MTSSL (from UniProt P9WJN5 1-151) (natural protein)”, in [15], the stoichiometry N came to 5.

With “TbMscL L73C, spin-labeled with MTSSL (from UniProt P9WJN5 1-151) (natural protein)”, in [16], the stoichiometry N was found to be 5.

“TbMscL L73R1-L89W (from UniProt P9WJN5 1-151) (natural protein)” showed a stoichiometry N in assay [17] of 5.

In [18], “TbMscL F79C, spin-labeled with MTSSL (from UniProt P9WJN5 1-151) (natural protein)” showed a stoichiometry N of 5.

“TbMscL I23C, spin-labeled with MTSSL (from UniProt P9WJN5 1-151) (natural protein)” yielded a stoichiometry N in [19] of 5.

Substance “TbMscL K100R1-L89W (from UniProt P9WJN5 1-151) (natural protein)” registered a stoichiometry N in assay [20] of 5.

For the substance “TbMscL L42C, spin-labeled with MTSSL (from UniProt P9WJN5 1-151) (natural protein)”, in assay [21], the stoichiometry N is 5.

In the case of “TbMscL E102C, spin-labeled with MTSSL (from UniProt P9WJN5 1-151) (natural protein)”, the stoichiometry N in [22] and in assay [23] was 5 throughout.

“TbMscL K100C, spin-labeled with MTSSL (from UniProt P9WJN5 1-151) (natural protein)”: the stoichiometry N in assay [24] was determined as 5.

Consider “TbMscL L2C, spin-labeled with MTSSL (from UniProt P9WJN5 1-151) (natural protein)”, for which the stoichiometry N in assay [25] is 5.

As to “TbMscL K100R1-F88W (from UniProt P9WJN5 1-151) (natural protein)”, in [26], the stoichiometry N came out at 5.

Substance “TbMscL F84C, spin-labeled with MTSSL (from UniProt P9WJN5 1-151) (natural protein)” had a stoichiometry N in [27] of 5.
